Reference: US20180086841A1 (Merck Sharp & Dohme, published 2018)

T1: Macaca mulatta CD27 (mmCD27) (Macaca mulatta (rhesus) / Macaca …, UniProt P26842 21-260 (human entry))
T1 construct: also called Rhesus CD27; rhesus monkey CD27
T1 chain: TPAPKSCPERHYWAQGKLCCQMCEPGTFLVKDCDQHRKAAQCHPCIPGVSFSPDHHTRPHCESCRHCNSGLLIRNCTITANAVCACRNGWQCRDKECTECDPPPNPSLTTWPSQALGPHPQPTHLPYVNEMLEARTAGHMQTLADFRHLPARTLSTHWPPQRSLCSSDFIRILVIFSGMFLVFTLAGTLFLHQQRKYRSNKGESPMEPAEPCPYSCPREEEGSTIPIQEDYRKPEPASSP

T2: Q41A
T2 construct: also called hCD27 Q41A
T2 receptor chain: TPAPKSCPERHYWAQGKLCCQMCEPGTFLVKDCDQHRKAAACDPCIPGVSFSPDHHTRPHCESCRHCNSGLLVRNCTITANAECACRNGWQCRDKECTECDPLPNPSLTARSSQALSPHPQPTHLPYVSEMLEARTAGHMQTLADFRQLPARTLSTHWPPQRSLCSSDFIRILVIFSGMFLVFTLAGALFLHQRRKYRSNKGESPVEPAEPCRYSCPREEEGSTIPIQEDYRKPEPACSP

T3: G89A
T3 construct: also called hCD27 G89A
T3 receptor chain: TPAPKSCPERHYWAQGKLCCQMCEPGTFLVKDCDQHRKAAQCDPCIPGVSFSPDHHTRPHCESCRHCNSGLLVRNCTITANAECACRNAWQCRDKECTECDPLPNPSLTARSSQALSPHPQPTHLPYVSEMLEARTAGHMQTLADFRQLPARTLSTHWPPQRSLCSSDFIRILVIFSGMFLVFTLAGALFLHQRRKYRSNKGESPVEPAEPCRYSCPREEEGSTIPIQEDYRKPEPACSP

T4: E9A
T4 construct: also called hCD27 E9A
T4 receptor chain: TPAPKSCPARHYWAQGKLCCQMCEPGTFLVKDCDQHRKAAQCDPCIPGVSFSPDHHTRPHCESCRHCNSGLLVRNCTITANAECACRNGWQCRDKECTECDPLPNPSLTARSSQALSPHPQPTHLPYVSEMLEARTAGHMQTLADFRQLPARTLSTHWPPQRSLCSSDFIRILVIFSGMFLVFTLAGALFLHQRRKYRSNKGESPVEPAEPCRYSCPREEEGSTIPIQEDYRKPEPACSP

T5: K17A
T5 construct: also called hCD27 K17A
T5 receptor chain: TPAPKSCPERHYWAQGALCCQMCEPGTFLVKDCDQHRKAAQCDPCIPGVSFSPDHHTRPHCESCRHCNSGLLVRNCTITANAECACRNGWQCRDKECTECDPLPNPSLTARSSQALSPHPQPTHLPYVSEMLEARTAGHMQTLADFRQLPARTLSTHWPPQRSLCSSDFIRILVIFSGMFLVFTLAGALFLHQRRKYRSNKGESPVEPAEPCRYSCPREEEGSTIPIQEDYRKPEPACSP

T6: V49A
T6 construct: also called hCD27 V49A
T6 receptor chain: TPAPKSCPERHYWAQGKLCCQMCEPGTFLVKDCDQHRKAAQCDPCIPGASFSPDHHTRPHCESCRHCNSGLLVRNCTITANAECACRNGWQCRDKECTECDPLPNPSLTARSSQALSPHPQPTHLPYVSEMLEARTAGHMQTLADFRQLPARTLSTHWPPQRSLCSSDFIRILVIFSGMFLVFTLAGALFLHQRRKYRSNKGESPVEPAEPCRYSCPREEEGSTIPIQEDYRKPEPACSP

T7: H60A
T7 construct: also called hCD27 H60A
T7 receptor chain: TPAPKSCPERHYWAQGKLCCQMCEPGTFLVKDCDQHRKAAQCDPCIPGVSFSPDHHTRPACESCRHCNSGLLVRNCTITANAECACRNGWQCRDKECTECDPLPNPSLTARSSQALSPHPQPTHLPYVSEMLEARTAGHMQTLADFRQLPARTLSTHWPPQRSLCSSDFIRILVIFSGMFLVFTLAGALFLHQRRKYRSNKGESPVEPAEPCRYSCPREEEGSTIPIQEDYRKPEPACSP

T8: S63A
T8 construct: also called hCD27 S63A
T8 receptor chain: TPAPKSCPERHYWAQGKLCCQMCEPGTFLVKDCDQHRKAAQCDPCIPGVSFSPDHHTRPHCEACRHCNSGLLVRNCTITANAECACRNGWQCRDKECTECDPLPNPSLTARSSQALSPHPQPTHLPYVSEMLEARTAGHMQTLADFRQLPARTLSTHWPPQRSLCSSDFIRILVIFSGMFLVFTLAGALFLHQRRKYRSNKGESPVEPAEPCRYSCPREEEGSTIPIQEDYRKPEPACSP

T9: R10A
T9 construct: also called hCD27 R10A
T9 receptor chain: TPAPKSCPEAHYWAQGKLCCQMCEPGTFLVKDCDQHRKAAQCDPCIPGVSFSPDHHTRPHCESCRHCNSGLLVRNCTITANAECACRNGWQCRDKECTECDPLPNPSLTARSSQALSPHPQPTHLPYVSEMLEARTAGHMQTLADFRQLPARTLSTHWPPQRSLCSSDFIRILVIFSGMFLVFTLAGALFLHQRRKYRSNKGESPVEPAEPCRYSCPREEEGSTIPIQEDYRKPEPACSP


Tests used:
human CD27 (A59T) = target: T10, human CD27 (A59T) (human, UniProt P26842 21-260); assay: cell ELISA on CHO-K1 transfectants (selection of the clone)
T10 construct: also called hCD27 (A59T); human CD27 variant p.Ala59Thr
Description: (§1) On day eight, supernatants were screened by cell-ELISA for reactivity to hCD27 as described above. In addition, the hCD27-reactive supernatants were tested for binding to Macaca Mulatta CD27 (mmCD27) expressed on CHO-K1 cells. […] In the cell-ELISA, all incubation steps were followed by a wash step with PBST (PBS with 0.01% Tween 20). Parental CHO-K1, CHO-K1.hCD27, or CHO-K1.mmCD27 cells were seeded (40,000 cells/well) in tissue culture plates and incubated overnight at 37° C. The next day, culture medium was removed and cells were incubated for one hour with (dilutions of) B-cell supernatants at 37° C. […] Subsequently, cells were washed 6 times with PBST and anti-hCD27 immunoreactivity was visualized with 100 μl TMB Stabilized Chromagen (Invitrogen, cat. no. SB02). Reactions were stopped with 100 μl 0.5 M H₂SO₄ and absorbances were read at 460 and 620 nm.
(§2) Hybridoma supernatants were tested in Cell-ELISA experiments for binding to CHO-K1.mmCD27 or CHO-K1 cells expressing hCD27 (A59T), as described above. […] A serial dilution of the supernatants was added.

[1] = target: T1, Macaca mulatta CD27 (mmCD27); assay: as above
Description: as §1, §2

Q41A = target: T2, Q41A; assay: flow cytometry on CHO-K1 transfectants, right sub-column
Description: (§3) The hCD27 variants that were tested are listed. Amino acids correspond to the UniProt P26842-1 sequence. Amino acids 1-20 constitute the signal peptide. Binding is expressed as the geometric mean of the FITC signal, relative to antibody binding to hCD27, which was set at 100%.
(§4) The ability of several anti-hCD27 antibodies to bind to a series of hCD27 alanine mutants was determined using CHO-K1 cells, transiently transfected pCI-neo empty vector, pCI-neo.hCD27 and several pCI-neo.CD27Ala mutant constructs.
(§5) Detached cells were transferred to 96 wells round-bottomed well plates at approximately 1.2×10⁵ cells/well. After spinning down the cells, discarding the supernatants and re-suspending the cells in the residual volume, the primary antibodies were added and incubated for 30 minutes at 4° C. Cells were washed three times with DPBS/BSA 1%, followed by centrifugation, discarding of the supernatants and re-suspension in the residual volume. […] After washing once, antibody binding was detected using the HTS plate reader (FACS Canto II) and FlowJo software for data analysis. Debris, dead cells and doublets were excluded from the analysis. Binding was expressed as the geometric mean of the FITC signal, relative to antibody binding to hCD27, which was set at 100%.

G89A [2] = target: T3, G89A; assay: as above
Description: as §3, §4, §5

E9A = target: T4, E9A; assay: as above
Description: as §3, §4, §5

K17A = target: T5, K17A; assay: flow cytometry on CHO-K1 transfectants;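 further: Anti-hCD27 antibodies tested on transiently transfected CHO-K1 cells bearing hCD27 alanine mutants, 30 min at 4 °C primary incubation, FITC readout excluding debris, dead cells and doublets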
Description: as §3, §4, §5

V49A = target: T6, V49A; assay: flow cytometry on CHO-K1 transfectants;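 further: Anti-hCD27 antibodies tested on transiently transfected CHO-K1 cells bearing hCD27 alanine mutants, 30 min at 4 °C primary incubation, FITC readout excluding debris, dead cells and doublets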
Description: as §3, §4, §5

H60A = target: T7, H60A; assay: flow cytometry on CHO-K1 transfectants;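 further: Anti-hCD27 antibodies tested on transiently transfected CHO-K1 cells bearing hCD27 alanine mutants, 30 min at 4 °C primary incubation, FITC readout excluding debris, dead cells and doublets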
Description: as §3, §4, §5

S63A = target: T8, S63A; assay: flow cytometry on CHO-K1 transfectants;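 further: Anti-hCD27 antibodies tested on transiently transfected CHO-K1 cells bearing hCD27 alanine mutants, 30 min at 4 °C primary incubation, FITC readout excluding debris, dead cells and doublets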
Description: as §3, §4, §5

G89A [3] = target: T3, G89A; assay: flow cytometry on CHO-K1 transfectants
Description: as §3, §4, §5

R10A = target: T9, R10A; assay: flow cytometry on CHO-K1 transfectants
Description: as §3, §4, §5

| binding result (human CD27 (A59T)) | binding result [1] | binding, WT hCD27 = 100 (GM FITC) (Q41A) | binding, WT hCD27 = 100 (GM FITC) (G89A [2]) | binding, WT hCD27 = 100 (GM FITC) (E9A) | binding, WT hCD27 = 100 (GM FITC) (K17A) | binding, WT hCD27 = 100 (GM FITC) (V49A) | binding, WT hCD27 = 100 (GM FITC) (H60A) | binding, WT hCD27 = 100 (GM FITC) (S63A) | binding, WT hCD27 = 100 (GM FITC) (G89A [3]) | binding, WT hCD27 = 100 (GM FITC) (R10A) | Binder |
| --- | --- | --- | --- | --- | --- | --- | --- | --- | --- | --- | --- |
| binds | binds | 80.5% | 82.9% | 132% |  |  |  |  |  |  | hCD27.131A (mouse parental 131A) (antibody, mouse IgG1, V domains shown, Mouse IgG1 antibody; also called mouse hCD27.131A) VH: QIQLVQSGPELKKPGETVKISCKASGYTFTNYGMNWVKQAPGKGLKWMGWINTNTGEPTYAEEFKGRFAFSLETSATTAYLQINNLKNEDTATYFCAREGDAMDYWGQGTSVTVSS VL: QIVLTQSPAIMSASPGEKVTMTCSASSSVSYMHWYQQKSGTSPKRWIYDTSKLASGVPARFSGSGSGTSYSLTISSMEAEDAATYYCQQWNSYPFTFGSGTKLEIK |
|  |  |  |  |  | 120% | 69% | 82.6% | 104% | 97.4% | 58.9% | hCD27.15-6B (antibody, human IgG4 S228P, kappa, V domains shown, also called hCD27.15 (humanized 6B); humanized hCD27.15 (human IgG4, Clone 6B)) VH: QVQLVQSGAEVKKPGASVKVSCKASGFIIKATYMHWVRQAPGQRLEWMGRIDPANGETKYDPKFQVRVTITADTSASTAYMELSSLRSEDTAVYYCARYAWYFDVWGQGTLVTVSS VL: DIQMTQSPSSLSASVGDRVTITCRASENIYSFLAWYQQKPGKAPKLLIYHAKTLAEGVTSRFSGSGSGTDFTLTISSLQPEDSATYYCQHYYGSPLTFGQGTRLEIKR |
